The results in this text go back to paper PMC12934148.

Series [1] has as its system Cas10-Csm R754E (Staphylococcus epidermidis). The experiment in a line: fluorescence polarization. The settings on record: no Mg2+, 1 mM EDTA, Kd only in Fig 8B, 50 mM Tris-HCl pH 8.0, 400 mM NH4Cl, 5% v/v glycerol, 0.025% w/v BSA, 10 nM RNA, 2 h at room temperature.
Series [2] relates to Cas10-Csm K524E (Staphylococcus epidermidis). Kind of series: fluorescence polarization. The conditions noted are these: no Mg2+, 1 mM EDTA, Kd only in Fig 8B, 50 mM Tris-HCl pH 8.0, 400 mM NH4Cl, 5% v/v glycerol, 0.025% w/v BSA, 10 nM RNA, 2 h at room temperature.

Regarding “CUUUGUACUGAUGAUUUAUAUACAAGCCGAUACGUUCUCUAAA [pmRNA01-FMM2 (Nes target, segment 2 mismatch)]”, the binding signal (fold Kd vs same mutant on cognate) is 1.6 in series [1] and 2.7 in series [2].

Take “CUUUGUACUGAUGAUUUAUAUACUUCGGCAUACGUUCUCUAAA [pmRNA01-F (Nes cognate target)]”: the results for the binding signal (fold Kd vs wild type on cognate) in series [1] and in series [2] were 2.8 and 1.8, respectively.
